Usually EC50 stands for the concentration giving half of the maximal effect. High values mean a need for much substance, low ones an effect from little substance.

One assay has as its target EBOV GPddmuc (Ebola virus (EBOV), UniProt Q05320 33-650). Description: ELISA. Background: ELISA stands for enzyme-linked immunosorbent assay.
Another assay deals with MARV GPddmuc (Marburg virus (MARV), UniProt P35253 19-648). The assay can be described thus: native ELISA.
The target of another assay is SUDV GPddmuc (Sudan virus (SUDV), UniProt Q66814 33-650). Description: ELISA.

B1: FVM05 (antibody, V domains shown)
VH: QVQLQESGPGLVKPSETLSLTCAVSGFSISSGYGWSWIRQPPGKGLEWIGYIGGSSGSTSYNPSLKSRVTLSADTSKNQFSLKLSSVTAADTAVYYCARRYSSYRSWFDVWGPGVLVTVSS
VL: SSGLTQPRSVSVSPGQTARITCGGDNIGSKSVHWYQQKPPQAPVLVIYADSERPSGIPERFSGSNSGNTATLTISGVEAGDEADYYCQVWDSSSDHWVFGGGTRLTVL
Regarding B1, in the assay with EBOV GPddmuc, a half-maximal response (EC50) required 2.67 nM. Besides, in the assay with MARV GPddmuc, the binding result is on record as “no binding”.

B2: FVM29 (antibody, V domains shown)
VH: EVQLVQSGAEVKRPGESLKISCQTSGNSFTNNWISWVRQMPGKGLEWMGAIDPSDSETRYSPSFQGQVTISADKSINTAYLQWSSLKASDTATYYCVKGSETWGQGVLVTVSS
VL: QPVLTQPASLSASPGASASLTCTFSGGINVAGYNILWYQQKAGSPPRYLLRYKSDSTKDQGSGVPSRFSGSKDASANTGILRISGLQSEDEADYYCAIGHSSGWIFGGGTRLTVL
Consider B2, for which a half-maximal response with SUDV GPddmuc (EC50) required 12.8 nM. The binding result with MARV GPddmuc is on record as “no binding”.

B3: FVM10 (antibody, V domains shown)
VH: QVQLVQSGAEVKRPGESLKISCQTSGYSFTDSWVAWVRQMPGKGLEWLGSIYPGDSETKYNPSFQGHVTISADKSISTAYLQWSSLKASDTATYYCAKGSETWGQGLRVTVSS
VL: QAGLTQPASLSASPGASASLTCTFSGGINVAGYNILWYQQKPGSPPRYLLRYKSDSDKDQGSGVPSRFSGSKDASANTGILRISGLQSEDEADYYCAIGHSSGWIFGGGTRLTVL
With B3, the values for the EC50 in the assay with SUDV GPddmuc and with EBOV GPddmuc were 0.082 nM and 0.079 nM, respectively. Further, in the assay with MARV GPddmuc, the binding result is “no binding”.

B4: FVM08 (antibody, V domains shown)
VH: EVQLVQSGAEVKRPGESLTISCKTSGYSFTDSWVAWVRQMPGKGLEWMGSIYPGDSDTRYNPSFEGQVTISADKSISTTYLQWSSLRASDTATYYCVKGADDWGQGVLVTVSS
VL: QPVLTQPASLSASPGASASLTCTFSGGINVAGYNILWYQQKAGSPPRYLLRYKSDSTKDQGSGVPSRFSGSKDASANTGILRISGLQSEDEADYYCAIGHSSGWIFGGGTRLTVL
As to B4, the figures for the EC50 with SUDV GPddmuc and in the assay with EBOV GPddmuc were 0.048 nM and 0.461 nM, respectively. For the same molecule, in the assay with MARV GPddmuc, the binding result is on record as “no binding”.

B5: FVM07 (antibody, V domains shown)
VH: EVQLVQSGAEVKRPGESLTISCKTSGYSFTDSWIGWVRQMPGKGLEWMGSIYPGDSDTKYNPSFQGHVTISADKSISTTYLQWSSLKASDTATYYCVAREAYWGQGVLVTVSS
VL: QPVLTQPASLSASPGASASLTCTFSGGINVAGYHIFWYQQKPGSPPRYLLRYKSDSDKGQGSGVPSRFSGSKDASANTGILRISGLQSEDEADYYCAIGHSSGVLFGGGTRLTVL
On to B5, for which the results for the EC50 in the assay with SUDV GPddmuc and with EBOV GPddmuc were 0.491 nM and 0.119 nM, respectively. Besides, the binding result in the assay with MARV GPddmuc is on record as “no binding”.

B6: FVM39 (antibody, V domains shown)
VH: EVQLVQSGAEVKRPGESLRISCKTSGYSFTDSWISWVRQMPGKGLEWLGSIYPGDSETKYNPSFQGHVTISADKSVTTTYLKWSSLKASDTATYYCVKGSETWGQGVLVTVSS
VL: QPVLTQPASLSASPGASASLTCTFSGGINVAGYNILWYQQKAGSPPRYLLRYKSDSTKDQGSGVPSRFSGSKDASANTGILRISGLQSEDEADYYCAIGHSSGWIFGGGTRLTVL
Consider B6, for which the EC50 in the assay with SUDV GPddmuc was determined as 0.02 nM; in the assay with EBOV GPddmuc it was 0.027 nM. For the same molecule, in the assay with MARV GPddmuc, the binding result is reported as “no binding”.

B7: FVM27 (antibody, V domains shown)
VH: EVQLVQSGAEVKRPGESLKISCKTSGYSFASSWISWVRQMPGKGLEWMGAIDPSDSATRYSPSFQGQVTISADKSISTAYLQWSSLKASDTATYYCVKGSETWGQGVLVTVSS
VL: QPVLTQPASLSASPGASASLTCTFSGGINVAGYNILWYQQKAGSPPRYLLRYKSDSTKDQGSGVPSRFSGSKDASANTGILRISGLQSEDEADYYCAIGHSSGWIFGGGTRLIVL
For the molecule B7, the EC50 with SUDV GPddmuc was determined as 0.04 nM; with EBOV GPddmuc it was 0.047 nM. In addition, in the assay with MARV GPddmuc, the binding result was “no binding”.

B8: FVM26 (antibody, V domains shown)
VH: QVQLVQSGAEVKRPGESLRISCKTSGYTFTDYWIAWVRQMPGKGLEWMGSIYPGDSETKYNPSFQGHVTISADKSVTTTYLKWSRLKASDTATYYCVKGSETWGQGVLVTVSS
VL: QPVLTQPASLSASPGASASLTCTFSGGINVAGYNILWYQQKAGSPPRYLLRYKSDSTKDQGSGVPSRFSGSKDASANTGILRISGLQSEDEADYYCAIGHSSGWIFGGGTRLTVL
As for B8, the values for the EC50 in the assay with SUDV GPddmuc and in the assay with EBOV GPddmuc were 0.08 nM and 0.1 nM, respectively. Besides, the binding result in the assay with MARV GPddmuc is listed as “no binding”.

B9: FVM22 (antibody, V domains shown)
VH: EVQLVQSGAEVKRPGESLTISCKTSGYSFTDSWVAWVRQMPGKGLEWLGSIYPGDSETKYNPSFQGHVTISADKSISTAYLQWSSLKASDTATYYCAKGSETWGQGVLVTVSS
VL: SSGLTQPASLSASPGASASLTCTFSGGINVAGYNILWYQQKAGSPPRYLLRYKSDSTKDQGSGVPSRFSGSKDASANTGILRISGLQSEDEADYYCAIGHSSGWIFGGGTRLTVL
Turning to B9, the EC50 with SUDV GPddmuc came out at 0.6 nM; in the assay with EBOV GPddmuc, 0.067 nM. Besides, the binding result with MARV GPddmuc is recorded as “no binding”.

B10: FVM31 (antibody, V domains shown)
VH: QVQLVQSGAEVKRPGESLTISCKTSGYSFTDSWVAWVRQMPGKGLEWLGSIYPGDSDARYNPSFQGHVTISADTSVTTTYLKWSSLKASDTATYYCVKGSETWGQGVLVTVSS
VL: KPMLTQPASLSASPGASASLTCTFSGGINVAGYNILWYQQKAGSPPRYLLRYKSDSTKDQGSGVPSRFSGSKDASANTGILRISGLQSEDEADYYCAIGHSSGWIFGGGTRLTVL
Turning to B10, the EC50 in the assay with SUDV GPddmuc came out at 0.093 nM; in the assay with EBOV GPddmuc, 0.107 nM. Besides, the binding result with MARV GPddmuc is given as “no binding”.

B11: FVM16 (antibody, V domains shown)
VH: EVQLVQSGAEVKRPGESLKISCRTSGYSFTSTWINWVRQMPGKGLEWLGSIYPGDSETKYNPSFQGHVTISADKSVTTTYLKWSSLKASDTATYYCVKGSETWGQGVLVTVSS
VL: KPMLTQPASLSASPGASASLTCTFSGGINVAGYNILWYQQKAGSPPRYLLRYKSDSTKDQGSGVPSRFSGSKDASANTGILRISGLQSEDEADYYCAIGHSSGWVFGGGTRLTVL
In the case of B11, the results for the EC50 with SUDV GPddmuc and with EBOV GPddmuc were 0.059 nM and 0.066 nM, respectively. Also, the binding result with MARV GPddmuc was “no binding”.

B12: FVM11 (antibody, V domains shown)
VH: EVQLVQSGAEVKRPGESLTISCKTSGYSFTDSWVAWVRQMPGKGLEWLGSIYPGDSETKYNPSFQGHVTISADKSVTTTYLKWSSLKASDTATYYCVKGSETWGQGVLVTVSS
VL: NFMLTQPASLSASPGASASLTCTFSGGINVAGYNILWYQQKAGSPPRYLLRYKSDSTKDQGSGVPSRFSGSKDASANTGILRISGLQSEDEADYYCAIGHSSGWIFGGGTRLTVL
B12: the EC50 with SUDV GPddmuc was 0.053 nM; with EBOV GPddmuc, 0.059 nM. In addition, in the assay with MARV GPddmuc, the binding result is listed as “no binding”.

B13: FVM36 (antibody, V domains shown)
VH: EVQLVQSGAEVKRPGESLTISCKTSGYSFTDNWISWVRQMPGKGLEWMGSIYPGDSETKYNPSFQGHVTISADKSVTTTYLKWSSLKASDTATYYCVKGSETWGQGVLVTVSS
VL: QSVLTQPASLSASPGASASLTCTFSGGINVAGYNILWYQQKAGSPPRYLLRYKSDSTKDQGSGVPSRFSGSKDASANTGILRISGLQSEDEADYYCAIGHSSGWIFGGGTRLTVL
With B13, the binding result with MARV GPddmuc is recorded as “no binding”.

B14: FVM14 (antibody, V domains shown)
VH: EVQLVQSGAEVKRPGESLKISCQTSGYSFTSTWITWVRQMPGKGLEWLGSIYPGDSETKYNPSFQGHVTISADKSISTTYLQWNSLKASDTATYYCVKGSETWGQGVLVTVSS
VL: QAVVTQPASLSASPGASASLTCTFSGGINVAGYNILWYQQKAGSPPRYLLRYKSDSTKDQGSGVPSRFSGSKDASANTGILRISGLQSEDEADYYCAIGHSSGWIFGGGTRLTVL
Turning to B14, the EC50 is 0.077 nM in the assay with SUDV GPddmuc and 0.086 nM with EBOV GPddmuc. The binding result with MARV GPddmuc was “no binding”.

B15: FVM06 (antibody, V domains shown)
VH: EVQLVQSGAEVKRPGESLTISCKTSGYSFTNYWISWVRQMPGEGLEWMGAIDPSDSDTRYSPSFQGQVTMSADKSITTAYLQWSSLKASDTATYYCVKGSETWGQGVLVTVSS
VL: QPVLTQPASLSASPGASASLTCTFSGGINVAGYNILWYQQKAGSPPRYLLRYKSDSTKDQGSGVPSRFSGSKDASANTGILRISGLQSEDEADYYCAIGHSSGWIFGGGTRLTVL
For the molecule B15, the figures for the EC50 in the assay with SUDV GPddmuc and in the assay with EBOV GPddmuc were 0.05 nM and 0.059 nM, respectively. For the same molecule, in the assay with MARV GPddmuc, the binding result was “no binding”.

B16: FVM42 (antibody, V domains shown)
VH: EVQLVESGAEVKRPGESLTISCKTSGYSFTDSWVAWVRQMPGKGLEWMGSIYPGDSETKYNPSFQGHVTISADKSVTTTYLKWSSLKASDTATYYCVKGSETWGQGVLVTVSS
VL: QTVVTQPASLSASPGASASLTCTFSGGINVAGYNILWYQQKAGSPPRYLLRYKSDSTKDQGSGVPSRFSGSKDASANTGILRISGLQSEDEADYYCAIGHSSGWIFGGGTRLTVL
B16: in the assay with MARV GPddmuc, the binding result is recorded as “no binding”.

B17: FVM15 (antibody, V domains shown)
VH: QVQLVQSGAEVKRPGESLRISCKTSGYTFTDYWIAWVRQMPGKGLEWMGSIYPGDSETKYNPSFQGHVTISADKSVTTTYLKWSRLKASDTATYYCVKGSETWGQGVLVTVSS
VL: QPVLTQPASLSASPGASASLTCTFSGGINVAGYNILWYQQKAGSPPRYLLRYKSDSTKDQGSGVPSRFSGSKDASANTGILRISGLQSEDEADYYCAIGHSSGWIFGGGTRLTVL
Turning to B17, the EC50 with SUDV GPddmuc was found to be 0.035 nM; with EBOV GPddmuc, 0.042 nM. The binding result with MARV GPddmuc is reported as “no binding”.

B18: FVM01P (antibody, V domains shown)
VH: QVQLQESGPGLVKPSETLSLTCTVSGASISNYRWNWIRQPPGKGLEWIGEINGYSGSTNYNPSLKSRVTISKDASKNQFSLKLTSVTAADTAVYYCPIIGGFTLEWFDVWGPGVLVTVSS
VL: DVVLTQSPSSLSASVGDRVTITCRASQGIRNYLNWYQQKPRKAPKLLIYAASSLQSGVPSRFSGSGSGTEFTLTISSLQAEDFATYYCLQGYRTPFTFGPGTKLDIKR
Consider B18, for which the figures for the EC50 with SUDV GPddmuc and with EBOV GPddmuc were 0.047 nM and 0.057 nM, respectively. Further, the binding result with MARV GPddmuc is listed as “no binding”.

The values above are taken from patent publication US20170334973A1 (INTEGRATED BIOTHERAPEUTICS, published 2017).
